Here are results for five molecules from patent US20230272119A1 (MARENGO THERAPEUTICS, published 2023).

The target of experiment [1] is T1, α-CTLA4 heavy-hCHIg_Knob_Cys (SEQ ID NO: 168) (Homo sapiens (Human), UniProt P0DOX5 1-449 = IgG part).
T1 construct: full heavy chain, human Fc knob; Fab analysed after papain cleavage in the MS assay; germline VH3-30*01; also called HCP2 of multispecific molecules 3, 4, 5, 9
Kind of experiment: intact MS of papain-cleaved multispecific molecule 3; Fab 'Kappa heavy chain/lambda light chain' not observed.

The target in experiment [2] is T2, α-IL12β heavy-hCHIg_Hole_Cys (SEQ ID NO: 170) (Homo sapiens (Human), UniProt P0DOX5 1-449 = IgG part).
T2 construct: full heavy chain, human Fc hole; Fab analysed after papain cleavage in the MS assay; germline VH3-33*01; also called HCP1 of multispecific molecules 3 and 9
Briefly: intact MS of papain-cleaved multispecific molecule 3; Fab of this pairing observed (observed mass, Da).

For experiment [3], the target named is T3, α-CCR2 heavy-LgBiT (SEQ ID NO: 155).
T3 construct: VH-CH1-linker-LgBiT; germline VH1-2*01
Briefly: NanoBiT, HC-LgBiT:LC-SmBiT:competing LC 1:1:1; competing kappa LC m36 (SEQ ID NO: 127).

The target is the same in experiment [4]. Briefly: NanoBiT, HC-LgBiT:LC-SmBiT:competing LC 1:1:1; competing kappa LC m24 (SEQ ID NO: 115).
Experiment [5] shares this target. Kind of experiment: NanoBiT, HC-LgBiT:LC-SmBiT:competing LC 1:1:1; competing kappa LC m42 (SEQ ID NO: 133).
Experiment [6] has the same target. Briefly: NanoBiT, HC-LgBiT:LC-SmBiT:competing LC 1:1:1; competing kappa LC m33 (SEQ ID NO: 124).
In experiment [7] the target is T4, α-CCR2 heavy-LgBiT (SEQ ID NO: 158).
T4 construct: VH-CH1-linker-LgBiT; germline VH3-7*01
Briefly: NanoBiT, HC-LgBiT:LC-SmBiT:competing LC 1:1:1; competing kappa LC m12 (SEQ ID NO: 103).

For experiment [8] the target is unchanged. Briefly: NanoBiT, HC-LgBiT:LC-SmBiT:competing LC 1:1:1; competing kappa LC m6 (SEQ ID NO: 97).
Experiment [9] has the same target. Kind of experiment: NanoBiT, HC-LgBiT:LC-SmBiT:competing LC 1:1:1; competing kappa LC m24 (SEQ ID NO: 115).
The target is the same in experiment [10]. Kind of experiment: NanoBiT, HC-LgBiT:LC-SmBiT:competing LC 1:1:1; competing kappa LC m18 (SEQ ID NO: 109).
Experiment [11] shares this target. Kind of experiment: NanoBiT, HC-LgBiT:LC-SmBiT:competing LC 1:1:1; competing kappa LC m15 (SEQ ID NO: 106).
The target is the same in experiment [12]. Briefly: NanoBiT, HC-LgBiT:LC-SmBiT:competing LC 1:1:1; competing kappa LC m42 (SEQ ID NO: 133).
Experiment [13] has the same target. Kind of experiment: NanoBiT, HC-LgBiT:LC-SmBiT:competing LC 1:1:1; competing kappa LC m9 (SEQ ID NO: 100).
The target in experiment [14] is T5, α-complement C5 heavy-LgBiT (SEQ ID NO: 152).
T5 construct: VH-CH1-linker-LgBiT; germline VH1-69*01
Briefly: NanoBiT, HC-LgBiT:LC-SmBiT:competing LC 1:1:1; competing kappa LC m42 (SEQ ID NO: 133).

Experiment [15] concerns the target T6, α-HER3 heavy-LgBiT (SEQ ID NO: 143).
T6 construct: VH-CH1-linker-LgBiT; germline VH3-9*01
Briefly: NanoBiT, HC-LgBiT:LC-SmBiT:competing LC 1:1:1; competing kappa LC m36 (SEQ ID NO: 127).

Experiment [16] shares this target. Kind of experiment: NanoBiT, HC-LgBiT:LC-SmBiT:competing LC 1:1:1; competing kappa LC m12 (SEQ ID NO: 103).
For experiment [17] the target is unchanged. Kind of experiment: NanoBiT, HC-LgBiT:LC-SmBiT:competing LC 1:1:1; competing kappa LC m6 (SEQ ID NO: 97).
The target is the same in experiment [18]. Briefly: NanoBiT, HC-LgBiT:LC-SmBiT:competing LC 1:1:1; competing kappa LC m24 (SEQ ID NO: 115).
For experiment [19] the target is unchanged. Kind of experiment: NanoBiT, HC-LgBiT:LC-SmBiT:competing LC 1:1:1; competing kappa LC m15 (SEQ ID NO: 106).
Experiment [20] shares this target. Kind of experiment: NanoBiT, HC-LgBiT:LC-SmBiT:competing LC 1:1:1; competing kappa LC m42 (SEQ ID NO: 133).
For experiment [21] the target is unchanged. Kind of experiment: NanoBiT, HC-LgBiT:LC-SmBiT:competing LC 1:1:1; competing kappa LC m21 (SEQ ID NO: 112).
For experiment [22] the target is unchanged. Kind of experiment: NanoBiT, HC-LgBiT:LC-SmBiT:competing LC 1:1:1; competing kappa LC m27 (SEQ ID NO: 118).
The target is the same in experiment [23]. Briefly: NanoBiT, HC-LgBiT:LC-SmBiT:competing LC 1:1:1; competing kappa LC m33 (SEQ ID NO: 124).

B1: α-IL12β light (SEQ ID NO: 163) (other)
light: QSVLTQPPSVSGAPGQRVTISCSGSRSNIGSNTVKWYQQLPGTAPKLLIYYNDQRPSGVPDRFSGSKSGTSASLAITGLQAEDEADYYCQSYDRYTHPALLFGTGTKVTVLGQPKANPTVTLFPPSSEELQANKATLVCLISDFYPGAVTVAWKADGSPVKAGVETTKPSKQSNNKYAASSYLSLTPEQWKSHRSYSCQVTHEGSTVEKTVAPTECS
notes: unmodified lambda light chain; germline Vl1-44*01; also called LLCP of multispecific molecule 3
On to B1, for which the binding result in experiment [1] is “no binding”; in [2], “binds”.

B2: α-CCR2 light-SmBiT (SEQ ID NO: 156) (other)
light: LPVLTQPPSVSKGLRQTATLTCTGNSNNVGNQGAAWLQQHQGQPPKLLSYRNHNRPSGVSERFSPSRSGDTSSLTITGLQPEDEADYYCLAWDSSLRAFVFGTGTKLTVLGQPKANPTVTLFPPSSEELQANKATLVCLISDFYPGAVTVAWKADGSPVKAGVETTKPSKQSNNKYAASSYLSLTPEQWKSHRSYSCQVTHEGSTVEKTVAPTECSGSSGGGGSGGGGSSGGVTGYRLFEEIL
notes: lambda light chain-linker-SmBiT; germline Vl10-54*01
B2: the Percent pairing in experiment [3] worked out at 77%; in experiment [4], 90%; in [5] it was 100%; in experiment [6], 80%.

B3: α-CCR2 light-SmBiT (SEQ ID NO: 159) (other)
light: QAGLTQPPSVSKGLRQTATLTCTGNSNNVGNQGAAWLQQHQGHPPKLLFYRNNNRASGISERLSASRSGNTASLTITGLQPEDEADYYCLTWDSSLSVVVFGGGTKLTVLGQPKANPTVTLFPPSSEELQANKATLVCLISDFYPGAVTVAWKADGSPVKAGVETTKPSKQSNNKYAASSYLSLTPEQWKSHRSYSCQVTHEGSTVEKTVAPTECSGSSGGGGSGGGGSSGGVTGYRLFEEIL
notes: as for B2
As to B3, the Percent pairing in experiment [7] stood at 100%; in [8] it was 89%; in experiment [9], 97%; in experiment [10] it was 95%; in experiment [11], 98%; in experiment [12] it was 99%. This molecule displayed a Percent pairing in [13] of 99%.

B4: α-complement C5 light-SmBiT (SEQ ID NO: 153) (other)
light: SYELTQPLSVSVALGQTARITCSGDSIPNYYVYWYQQKPGQAPVLVIYDDSNRPSGIPERFSGSNSGNTATLTISRAQAGDEADYYCQSFDSSLNAEVFGGGTKLTVLGQPKANPTVTLFPPSSEELQANKATLVCLISDFYPGAVTVAWKADGSPVKAGVETTKPSKQSNNKYAASSYLSLTPEQWKSHRSYSCQVTHEGSTVEKTVAPTECSGSSGGGGSGGGGSSGGVTGYRLFEEIL
notes: lambda light chain-linker-SmBiT; germline Vl3-9*01
B4 had a Percent pairing in [14] of 79%.

B5: α-HER3 light-SmBiT (SEQ ID NO: 144) (other)
light: SYELTQDPAVSVALGQTVRITCQGDSLRSYYASWYQQKPGQAPVLVIYGKNNRPSGIPDRFSGSTSGNSASLTITGAQAEDEADYYCNSRDSPGNQWVFGGGTKVTVLGGQPKANPTVTLFPPSSEELQANKATLVCLISDFYPGAVTVAWKADGSPVKAGVETTKPSKQSNNKYAASSYLSLTPEQWKSHRSYSCQVTHEGSTVEKTVAPTECSGSSGGGGSGGGGSSGGVTGYRLFEEIL
notes: lambda light chain-linker-SmBiT; germline Vl3-19*01
Take B5: the Percent pairing in experiment [15] came out at 100%; in experiment [16] it was 80%; in experiment [17], 100%; in experiment [18] it was 86%; in experiment [19] it was 93%; in experiment [20] it was 100%. Further, the Percent pairing in experiment [21] came to 100%; in experiment [22], 90%; in experiment [23], 100%.
